Experiments:
Assay in all cases: cell-based or functional assay
[1] = molecular target: HIV-1 92BR020 envelope protein (Env) on pseudotyped virus (HIV-1 isolate 92BR020)
[2] = molecular target: HIV-1 Env of isolate 93MW959 (pseudovirus) (HIV-1 isolate 93MW959, subtype C)
[3] = molecular target: HIV-1 Env of isolate MG RM-AG-006 (HIV-1)
[4] = molecular target: HIV-1 JRFL envelope glycoprotein (Env) on pseudovirus (HIV-1)
[5] = molecular target: HIV-1 MGRM-AG-005 envelope glycoprotein (Env) on pseudovirus (HIV-1)
[6] = molecular target: HIV-1 APV-17 envelope glycoprotein (Env) on pseudovirus (HIV-1)
[7] = molecular target: HIV-1 APV-6 envelope glycoprotein (Env) on pseudovirus (HIV-1)
[8] = molecular target: HIV-1 IAVI-C18 envelope glycoprotein (Env) on pseudovirus (HIV-1)
[9] = molecular target: aMLV envelope protein on pseudovirus (aMLV)
[10] = molecular target: HIV-1 92UG024 Env (on pseudovirus) (HIV-1)
[11] = molecular target: HIV-1 93IN905 Env (on pseudovirus) (HIV-1)
[12] = molecular target: HIV-1 CMU02 Env (on pseudovirus) (HIV-1)
[13] = molecular target: HIV-1 JRCSF Env (on pseudovirus) (HIV-1) (UniProt P20871)
[14] = molecular target: HIV-1 JRFL Env (on pseudovirus) (HIV-1)
[15] = molecular target: HIV-1 MGRM-A-010 Env (on pseudovirus) (HIV-1)
[16] = molecular target: HIV-1 NL43 Env (on pseudovirus) (HIV-1)
[17] = molecular target: HIV-1 envelope glycoprotein (Env) of isolate MGRM-C-023, on pseudovirus (HIV-1)
[18] = molecular target: HIV-1 envelope glycoprotein (Env) of isolate MGRM-C-024, on pseudovirus (HIV-1)
[19] = molecular target: HIV-1 94UG103 Env (pseudovirus) (HIV-1)
[20] = molecular target: HIV-1 MGRM-C-027 Env (pseudovirus) (HIV-1)
[21] = molecular target: HIV-1 MGRM-D-018 Env (pseudovirus) (HIV-1)
[22] = molecular target: HIV-1 Env of isolate 94KE105 (HIV-1)
[23] = molecular target: HIV-1 Env of isolate MGRM-A-008 (HIV-1)
[24] = molecular target: HIV-1 Env of isolate MGRM-A-009 (HIV-1)
[25] = molecular target: HIV-1 Env of isolate MGRM-A-010 (HIV-1)
[26] = molecular target: HIV-1 Env of isolate MGRM-F1-004 (HIV-1)
[27] = molecular target: HIV-1 Env of isolate MGRM-F1-006 (HIV-1)
[28] = molecular target: HIV-1 Env of isolate MGRM-F1-008 (HIV-1)
[29] = molecular target: HIV-1 Env of isolate PVO.4 (subtype B) (HIV-1)
[30] = molecular target: HIV-1 envelope glycoprotein (Env) of isolate 93TH305, on pseudovirus (HIV-1)
[31] = molecular target: HIV-1 envelope glycoprotein (Env) of isolate CAAN.A2, on pseudovirus (HIV-1)
[32] = molecular target: HIV-1 envelope glycoprotein (Env) of isolate MGRM-Chronic-B-002, on pseudovirus (HIV-1)

PGT-141 (4964_G22; 4993_K13) (antibody), sequence (VH): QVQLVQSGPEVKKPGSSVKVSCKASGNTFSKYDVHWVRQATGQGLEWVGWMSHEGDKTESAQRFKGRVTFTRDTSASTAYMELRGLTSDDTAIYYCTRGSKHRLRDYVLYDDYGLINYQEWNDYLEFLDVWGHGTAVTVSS
PGT-141 (4964_G22; 4993_K13) (antibody), sequence (VL): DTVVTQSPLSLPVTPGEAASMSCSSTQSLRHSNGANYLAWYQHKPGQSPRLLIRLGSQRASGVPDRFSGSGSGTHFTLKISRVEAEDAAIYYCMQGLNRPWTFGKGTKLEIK
PGT-144 (4970_K22) (antibody), sequence (VH): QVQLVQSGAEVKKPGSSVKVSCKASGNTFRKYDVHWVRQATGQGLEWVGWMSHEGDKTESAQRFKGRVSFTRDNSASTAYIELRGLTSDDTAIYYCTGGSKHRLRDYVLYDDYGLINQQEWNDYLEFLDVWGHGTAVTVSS
PGT-144 (4970_K22) (antibody), sequence (VL): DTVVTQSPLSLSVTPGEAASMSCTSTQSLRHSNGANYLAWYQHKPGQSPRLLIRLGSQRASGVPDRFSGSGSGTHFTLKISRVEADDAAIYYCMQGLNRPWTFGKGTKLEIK

1495_C14 (PGC14) (antibody) gave an IC50, pseudovirus neutralization, 1 hour Virus/Ab Incubation [1] of 1.17 µg/mL and an IC50, pseudovirus neutralization, 18 hour Virus/Ab Incubation [1] of 0.244 µg/mL.

Work on 5123_A06 (PGT-125) (antibody) yielded an IC50 (µg/mL) neutralization [2] of 37.5 µg/mL, a neutralization IC50 [3] of 0.008 µg/mL and an IC50 (ug/ml), neutralizing activity [4] of 0.0156 µg/mL. For the same substance, the neutralization IC50 [4] was 0.0156 µg/mL, the neutralization IC80 [4] was 0.0462 µg/mL and the neutralization IC90 [4] was 0.0873 µg/mL. The neutralization IC95 [4] was 0.157 µg/mL, the IC50 (ug/ml), neutralizing activity [5] was greater than 10 µg/mL and the neutralization IC50 [5] was greater than 10 µg/mL. The neutralization IC80 [5] was greater than 10 µg/mL, the neutralization IC90 [5] was greater than 10 µg/mL and the neutralization IC95 [5] was greater than 10 µg/mL.

b12 (antibody) showed an IC90 (pseudovirus neutralization) [6] greater than 50 µg/mL, an IC90 (pseudovirus neutralization) [7] greater than 50 µg/mL and an IC90 (pseudovirus neutralization) [8] greater than 50 µg/mL. The IC90 (pseudovirus neutralization) [9] was greater than 50 µg/mL.

PGT-144 (4970_K22) (antibody) was tested, and the IC50 (ug/ml), pseudovirus neutralization [10] was greater than 10 µg/mL, the IC50 (ug/ml), pseudovirus neutralization [11] was 0.158 µg/mL and the IC50 (ug/ml), pseudovirus neutralization [12] was greater than 10 µg/mL. For the same substance, the IC50 (ug/ml), pseudovirus neutralization [13] was 0.128 µg/mL, the IC50 (ug/ml), pseudovirus neutralization [14] was greater than 10 µg/mL and the IC50 (ug/ml), pseudovirus neutralization [15] was 4.02 µg/mL. The IC50 (ug/ml), pseudovirus neutralization [16] was greater than 10 µg/mL, the IC50, pseudovirus neutralization [17] was 0.38 µg/mL and the IC50, pseudovirus neutralization [18] was 2.06 µg/mL.

5141_B17 (PGT-126) (antibody) was tested, and the IC50 [19] was 0.0091 µg/mL, the IC80 [19] was 0.0316 µg/mL and the IC90 [19] was 0.0655 µg/mL. For the same substance, the IC95 [19] was 0.128 µg/mL, the IC50 (µg/mL) neutralization [2] was 9.44 µg/mL and the neutralization IC50 [3] was 0.01 µg/mL. It also gave an IC50 (ug/ml), neutralizing activity [4] of 0.014 µg/mL, an IC50 (ug/ml), neutralizing activity [5] of 1.35 µg/mL and an IC50 [20] of 1.14 µg/mL. For the same substance, the IC80 [20] was greater than 10 µg/mL, the IC90 [20] was greater than 10 µg/mL and the IC95 [20] was greater than 10 µg/mL. It also gave an IC50 [21] of 0.0093 µg/mL, an IC80 [21] of 0.0391 µg/mL and an IC90 [21] of 0.0918 µg/mL. The IC95 [21] was 0.205 µg/mL.

Substance 5147_N06 (PGT-130) (antibody) has an IC50 (ug/ml), neutralizing activity [4] of 0.0346 µg/mL and an IC50 (ug/ml), neutralizing activity [5] of 0.947 µg/mL.

PGV04 (antibody) was tested, and the IC50 (µg/mL), pseudovirus neutralization [22] was 2.98 µg/mL, the IC50 [23] was 0.555 µg/mL and the IC50 [24] was 0.033 µg/mL. The IC50 (µg/mL), pseudovirus neutralization [25] was 0.205 µg/mL, the IC50 (µg/mL), pseudovirus neutralization [26] was 0.58 µg/mL and the IC50 (µg/mL), pseudovirus neutralization [27] was greater than 50 µg/mL. The IC50 (µg/mL), pseudovirus neutralization [28] was 1.03 µg/mL, the IC50 (µg/mL), pseudovirus neutralization [29] was 0.454 µg/mL and the IC50, pseudovirus neutralization [30] was 0.255 µg/mL. The IC50, pseudovirus neutralization [31] was 2.26 µg/mL and the IC50, pseudovirus neutralization [32] was 0.142 µg/mL.

4877_D15 (PGT-122) (antibody) showed an IC50 (µg/mL) neutralization [2] of 0.016 µg/mL, a neutralization IC50 [3] of 0.028 µg/mL and an IC50 (ug/ml), neutralizing activity [4] of 0.0471 µg/mL. The IC50 (ug/ml), neutralizing activity [5] was greater than 10 µg/mL.

For PGT-141 (4964_G22; 4993_K13) (antibody), the IC50 (ug/ml), pseudovirus neutralization [10] was greater than 10 µg/mL, the IC50 (ug/ml), pseudovirus neutralization [11] was 0.0016 µg/mL and the IC50 (ug/ml), pseudovirus neutralization [12] was greater than 10 µg/mL. For the same substance, the IC50 (ug/ml), pseudovirus neutralization [13] was 0.0047 µg/mL, the IC50 (ug/ml), pseudovirus neutralization [14] was greater than 10 µg/mL and the IC50 (ug/ml), pseudovirus neutralization [15] was 0.0563 µg/mL. For the same substance, the IC50 (ug/ml), pseudovirus neutralization [16] was 0.856 µg/mL, the IC50, pseudovirus neutralization [17] was 0.153 µg/mL and the IC50, pseudovirus neutralization [18] was 0.101 µg/mL.

With 4858_P08 (PGT-123) (antibody) the IC50 (µg/mL) neutralization [2] was 0.011 µg/mL, the neutralization IC50 [3] was 0.014 µg/mL and the IC50 (ug/ml), neutralizing activity [4] was 0.0283 µg/mL. The IC50, pseudovirus neutralization [4] was 0.0283 µg/mL, the IC80, pseudovirus neutralization [4] was 0.0904 µg/mL and the IC90 (pseudovirus neutralization) [4] was 0.178 µg/mL. The IC95, pseudovirus neutralization [4] was 0.332 µg/mL, the IC50 (ug/ml), neutralizing activity [5] was 0.104 µg/mL and the IC50, pseudovirus neutralization [5] was 0.104 µg/mL. It also gave an IC80, pseudovirus neutralization [5] of 1.28 µg/mL, an IC90 (pseudovirus neutralization) [5] of 6.38 µg/mL and an IC95, pseudovirus neutralization [5] greater than 10 µg/mL.

Work on 2F5 (antibody) yielded an IC90 (pseudovirus neutralization) [9] greater than 50 µg/mL.

— patent US20200024330A1
